The values below come from paper PMC6091870 (Cell reports, 2018).

For orientation: stoichiometry N means the number of molecules, sites or subunits per partner or assembly.

The data set “native gel or EMSA” deals with the molecule itself. Put plainly: native gel or EMSA. For orientation: Mobility shift assays separate free from complexed probe on a gel.
Data set [1] deals with T1, ACAD9 (mouse (endogenous in mouse heart)), Q8JZN5.
T1 chain: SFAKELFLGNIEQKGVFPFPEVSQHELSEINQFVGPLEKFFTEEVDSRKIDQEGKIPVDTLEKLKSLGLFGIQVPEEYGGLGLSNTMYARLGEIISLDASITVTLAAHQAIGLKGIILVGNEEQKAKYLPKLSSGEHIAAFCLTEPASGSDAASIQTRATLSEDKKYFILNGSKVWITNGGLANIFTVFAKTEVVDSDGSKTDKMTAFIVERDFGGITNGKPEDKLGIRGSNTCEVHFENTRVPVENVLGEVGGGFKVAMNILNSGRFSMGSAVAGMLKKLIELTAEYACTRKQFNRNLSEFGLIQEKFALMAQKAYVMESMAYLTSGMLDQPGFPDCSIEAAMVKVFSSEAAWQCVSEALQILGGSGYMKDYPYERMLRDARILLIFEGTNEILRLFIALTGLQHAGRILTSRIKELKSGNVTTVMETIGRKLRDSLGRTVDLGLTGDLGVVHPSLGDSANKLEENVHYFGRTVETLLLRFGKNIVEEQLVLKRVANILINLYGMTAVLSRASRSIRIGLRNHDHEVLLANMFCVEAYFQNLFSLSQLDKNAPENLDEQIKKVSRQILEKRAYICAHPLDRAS
In words: native gel or EMSA. The conditions noted are these: remark: other sources report otherwise.

B1: oxoglutarate dehydrogenase (OGDH) (enzyme, mouse (endogenous in mouse heart), UniProt Q60597 41-1023, looked up)
chain: SAPVAAEPFLSGTSSNYVEEMYCAWLENPKSVHKSWDIFFRNTNAGAPPGTAYQSPLSLSRSSLATMAHAQSLVEAQPNVDKLVEDHLAVQSLIRAYQIRGHHVAQLDPLGILDADLDSSVPADIISSTDKLGFYGLHESDLDKVFHLPTTTFIGGQEPALPLREIIRRLEMAYCQHIGVEFMFINDLEQCQWIRQKFETPGIMQFTNEEKRTLLARLVRSTRFEEFLQRKWSSEKRFGLEGCEVLIPALKTIIDMSSANGVDYVIMGMPHRGRLNVLANVIRKELEQIFCQFDSKLEAADEGSGDMKYHLGMYHRRINRVTDRNITLSLVANPSHLEAADPVVMGKTKAEQFYCGDTEGKKVMSILLHGDAAFAGQGIVYETFHLSDLPSYTTHGTVHVVVNNQIGFTTDPRMARSSPYPTDVARVVNAPIFHVNSDDPEAVMYVCKVAAEWRNTFHKDVVVDLVCYRRNGHNEMDEPMFTQPLMYKQIRKQKPVLQKYAELLVSQGVVNQPEYEEEISKYDKICEEAFTRSKDEKILHIKHWLDSPWPGFFTLDGQPRSMTCPSTGLEEDVLFHIGKVASSVPVENFTIHGGLSRILKTRRELVTNRTVDWALAEYMAFGSLLKEGIHVRLSGQDVERGTFSHRHHVLHDQNVDKRTCIPMNHLWPNQAPYTVCNSSLSEYGVLGFELGFAMASPNALVLWEAQFGDFNNMAQCIIDQFICPGQAKWVRQNGIVLLLPHGMEGMGPEHSSARPERFLQMCNDDPDVLPDLQEENFDINQLYDCNWIVVNCSTPGNFFHVLRRQILLPFRKPLIVFTPKSLLRHPEARTSFDEMLPGTHFQRVIPENGPAAQDPHKVKRLLFCTGKVYYDLTRERKARNMEEEVAITRIEQLSPFPFDLLLKEAQKYPNAELAWCQEEHKNQGYYDYVKPRLRTTIDRAKPVWYAGRDPAAAPATGNKKTHLTELQRFLDTAFDLDAFKKFS
With B1, the “stoichiometry N” value in the data set “native gel or EMSA” was 2.

B2: ACAD9, Q8JZN5 42-625 (enzyme)
chain: T1 chain
Consider B2, for which, in data set [1], the stoichiometry N was 2.
